Data as given in the supplement of paper PMC12042874.
± gives the uncertainty stated by the source.

Experiment: amyloid nucleation score (Sup35N fusion, yeast selection) (log enrichment); library NNK3; higher = more nucleation; inactive = no reads after selection
How it was run: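 Nucleation score is defined as the DiMSum log enrichment of output over input reads, with centring on the mode score of non-aggregating sequences. A minimum of 100 input reads was required for each sequence. Reads came from Illumina sequencing of plasmid inserts from psi-negative yeast expressing Sup35N fused to peptides of 20 random codons, induced with 100 μM copper sulfate for 24 hours and grown 7 days at 30°C on medium lacking adenine and uracil.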

Substance	amyloid nucleation score
SYWSYSSTFSILLSDSFAIS	inactive
SYYYPNIVRIEHPHCTRHHA	inactive
TACRFVSSRRELRIEVLTWF	-0.755 ± 1.8
TADDNVIRLAYFNVTTPLWF	inactive
TADYDYQAEVCCLVIMCVHN	inactive
TAEDYFMKVY	inactive
TAREMYSRKSRILRVILILS	inactive
TARHKHGLSLCDGVADLRGC	inactive
TARYIW	inactive
TASRFFCRWVYFRKGVSRCS	inactive
TASYSLVVVVENRKSCMVDN	inactive
TAVKTGGLLRVVALGNSLNA	0.399 ± 0.24
TAYVNSGVEIYGFSVTRNNS	1.48 ± 0.11
TCFKM	inactive
TCHIRKWSEGWLKYMDCRSP	inactive
TCKWFFHHAIDCLRKRISME	inactive
TCLQVSTFFVQASKSLYLPI	0.953 ± 0.11
TCMPRFSALYICSGTLDKKL	inactive
TCQRRYKKFS	-0.633 ± 0.52
TCRQNFCYCLDVIVQSCLSS	inactive
TCSVCMGQVTMVIRYVNSNC	inactive
TCVKMDRRSLAINALLSYYR	inactive
TCWFGIQLSGL	0.651 ± 0.2
TDHCMVGGMYLEPVTIFFEG	inactive

Substance	amyloid nucleation score
TDLIIIRRPNFGKRGSGLGV	inactive
TDNAVMGSHCI	inactive
TDPGILYMSCIRVMLGLFWD	inactive
TDRRKK	inactive
TDTIKSVVYVSVLDGDYNSG	inactive
TDVRFDRLTCCNSLIKITRW	1.14 ± 0.082
TDYPLLMLL	inactive
TEFPQEEPGTSLAQFP	-0.69 ± 1.1
TEISSSMSFVHNFIYVCDR	inactive
TEYFWGNYRKLCCFWWWLGR	inactive
TEYRYVLSISCH	inactive
TFCLSYFHLL	inactive
TFEQVCVLL	inactive
TFFWLLCN	inactive
TFHLRDCKSF	0.133 ± 1
TFSISSGSASYCVSSVDSS	inactive
TGEQECLKQMSISGNRIFVV	inactive
TGFNASCCLLGSRCGAEKIL	0.604 ± 0.18
TGFSVFYSVYRRQGH	0.912 ± 0.19
TGIMIVNYLVSELKPRTIST	0.923 ± 0.11
TGISSNHKFMESIDSYVGTP	inactive
TGLIWLCESNRMLTVGSSLR	inactive
TGLKYRLY	inactive
TGLLYFRFDCGSSIIRSRYY	0.875 ± 0.1

Substance	amyloid nucleation score
TGNDGYCVCSVCYLRICVAN	inactive
TGQQE	inactive
TGQYMYKWSGLRWSYGGTFA	inactive
TGRYVNWRASLSFAYNRMMI	inactive
TGVRMWFVG	inactive
TGVWLRACSYEGEFGEDRKL	inactive
THLRLIYITD	inactive
THRFVVLCEIITNPTEMGSG	0.703 ± 0.35
THSPKISRFLDNSRMRQFFT	inactive
THSVIFRVRYHLSYNAIRIF	inactive
TICVYHVSFCIQHRVSRGLL	-0.18 ± 0.36
TIEYLAGYFILMSQILGGDV	inactive
TIFVTTR	inactive
TIHYG	inactive
TIIDGLKCFFPAFFME	inactive
TILSPMASSQNKCDKNPMLS	1.19 ± 0.073
TILWGLQTQTQNCVVWKLGR	1.69 ± 0.12
TINDLSCGASRDGWMPVYS	inactive
TISCTDNFCSFILIRDGLTH	1.96 ± 0.059
TIYLDNTQLSLFRIGPVARR	1.9 ± 0.094
TKASKMTKQIF	inactive
TKCNRALHMEVIIQATAVAR	inactive
TKEAY	inactive
TKGFTSLSTIFFKVNKFD	inactive

Substance	amyloid nucleation score
TKIYVLLFTSLVLVDTVLFL	-0.002 ± 0.4
TKSYSMVSPIRVLNTDLIY	inactive
TLDLSHTMVCRLEYFSSAIG	inactive
TLFFSNDRVRFGRSTSRCHM	inactive
TLFLFIMVMGYSLANLVDSS	inactive
TLKCQHCIHVLGCVDMLTNF	1.46 ± 0.11
TLKRWLNLDRSSYIRESIKR	inactive
TLLPAVQIWHDIKHSTRTSW	inactive
TLNFMWASEVLVSMSVSNQL	inactive
TLPKVMFVIQNYGFFSGFTL	1.32 ± 0.079
TLSAEGVRRLFTCACSYHEG	0.532 ± 0.47
TLSGLVWWCVVFAMAT	inactive
TLSSLPVPL	inactive
TLSWNISCVCSERPFFNMHV	inactive
TLVFHISFGDLVHEILNCAV	2.17 ± 0.088
TLWYSFQKSSSNLTRSLGLK	inactive
TLYWFHTGICAYRMWTSVFF	inactive
TMLLLWYLHWSPAPRDCYLP	inactive
TMRVVFRHKTVNRIEVKVYF	-0.234 ± 0.69
TMSLTDYLCGCSWFWCKTSR	inactive
TMYCLHLNIMSCWSNSTKKT	2.57 ± 0.083
TNIHKTVSMKW	inactive
TNKLIKFLDFHVRRVAVVGE	inactive
TNMYSDSVIYVMHYGIPGGP	1.63 ± 0.092

Substance	amyloid nucleation score
TNMYYSRVANDGIF	inactive
TNRFSRWCIRRRMSAVRYIG	inactive
TNRIHPFERVLFVCVSGQGV	inactive
TNRRN	inactive
TNRWSIFTVVLSTMNVASFV	0.974 ± 0.18
TNTNFSVRFRTTKWMAKRRA	1.4 ± 0.11
TNVAHSKSSHHAYFIDWIGQ	inactive
TNVCLRRFLVTSLNGWVDGN	inactive
TNVLCRSTKNVFYTKGL	0.368 ± 0.17
TNVSKLLIMSFVCSIHRSHG	0.816 ± 0.18
TPDQDMLVMPWISYGGGYWR	inactive
TPMIVPLMNSQVVYTLFTTK	2.11 ± 0.076
TPMRHYKY	inactive
TPQPLIIAQIVASPSEKKLL	inactive
TPSGCAFNHCVMGTGDFQYM	2.38 ± 0.073
TQCEVYCIYGVTHGLE	inactive
TQCSNTGCCIEGNLT	inactive
TQLHGDLYWLVRMRVWIVEI	inactive
TRAPVECNLCIGIEKDEVVR	inactive
TRFDSVVMRKFYWVGSVRGL	inactive
